The record followed here is article PMC6937560.

The target of this experiment is myeloperoxidase (MPO), mature form from neutrophils of healthy human donors (human) (UniProt P05164). As to the kind of experiment: native MS; about 3 uM MPO in 150 mM ammonium acetate pH 7.5, direct infusion, Micromass LCT; monomer (light + heavy chain) to dimer.

As usually defined, the stoichiometry N is the number of molecules, sites or subunits per partner or assembly.

Regarding “myeloperoxidase (MPO), mature form from neutrophils of healthy human donors (from UniProt P05164 279-745) (enzyme)”, the stoichiometry N worked out at 2.
